Target: T1, GST-RadilPDZ (human, UniProt Q96JH8 870-1075)
T1 sequence (looked up): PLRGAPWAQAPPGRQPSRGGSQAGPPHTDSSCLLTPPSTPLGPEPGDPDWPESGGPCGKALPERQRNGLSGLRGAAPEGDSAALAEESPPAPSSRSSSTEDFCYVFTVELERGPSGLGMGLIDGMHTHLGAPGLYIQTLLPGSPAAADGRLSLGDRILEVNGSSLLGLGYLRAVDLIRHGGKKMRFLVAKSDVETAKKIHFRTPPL
Experiment: pull-down

B1: Flag-KIF14-ctail-IQWV (domain or fragment, human, UniProt Q15058 1483-1648, looked up)
chain: VQEENFEYQDFKRMVNRAPEFLKLKHCLEKAIEIIISALKGCHSDINLLQTCVESIRNLASDFYSDFSVPSTSVGSYESRVTHIVHQELESLAKSLLFCFESEESPDLLKPWETYNQNTKEEHQQSKSSGIDGSKNKGVPKRVYELHGSSPAVSSEECTPSRIQWV
- binding result: binds

From paper PMC3518219 (The Journal of Cell Biology, 2012)
